Experimental data as given in patent US20090280138A1 (OXFORD BIOMEDICA UK, published 2009).
Where two headings read alike, the source gives them in different places.

Assays:
[1] = target: T1, MHC class I molecule A*0201 (biotin (bound via biotin to streptavidin-coated plates)); experiment: iTopia affinity assay (ED50), peptide titration on plate-bound MHC
T1 construct: also called A2; HLA-A2
Protocol: (§1) The 9 mers were tested for Peptide Binding, Off Rate and Affinity using iTopia Epitope Discovery System in accordance with the manufacturer's instructions. Briefly, 96 well microtitre plates coated with MHC molecules representing different MHC alleles are used to identify candidate peptides. […] Determinations are performed in duplicate using an ELISA plate reader and included allele specific positive controls.
(§2) Dose-response curves of peptide binding to MHC were prepared by peptide titration to determine the ED50 measurement for each peptide. Values for the concentrations tested (in duplicate) were obtained as a percentage of the highest (9000×) concentration of the positive control peptide. A dose-response curve was generated using GraphPad Prism® curve fitting software, which automatically calculated the ED50 (in Molarity) for each peptide.

[2] = target: T2, MHC class I molecule A*0301 (biotin (bound via biotin to streptavidin-coated plates)); experiment: as above
T2 construct: also called A3; HLA-A3
Protocol: as §1, §2

[3] = target: T3, MHC class I molecule B*0702 (biotin (bound via biotin to streptavidin-coated plates)); experiment: as above
T3 construct: Methods name B*0702 as the allele used; also called B7; HLA-B7
Protocol: as §1, §2

[4] = target: T4, MHC class I molecule A*0101 (biotin (bound via biotin to streptavidin-coated plates)); experiment: as above
T4 construct: also called A1; HLA-A1
Protocol: as §1, §2

[5] = target: T5, MHC class I allele A*0101 monomer (human, biotinylated, bound to streptavidin-coated plate); experiment: iTopia, multiparametric iScore
T5 construct: placeholder peptide and b2M removed, then reconstituted with test peptide and fresh b2M; also called A1; HLA-A1
In short: (§3)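 9-mer peptides were tested on plates coated with MHC molecules, measuring binding, off-rate and affinity by ELISA in duplicate with allele-specific positive controls.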

[6] = target: T6, MHC class I allele A*0201 monomer (human, biotinylated, bound to streptavidin-coated plate); experiment: iTopia, multiparametric iScore
T6 construct: also called A2; HLA-A2
In short: as §3

[7] = target: T7, MHC class I allele A*0301 monomer (human, biotinylated, bound to streptavidin-coated plate); experiment: iTopia, multiparametric iScore
T7 construct: also called A3; HLA-A3
In short: as §3

[8] = target: T8, MHC class I allele B*0702 monomer (human, biotinylated, bound to streptavidin-coated plate); experiment: iTopia, multiparametric iScore
T8 construct: also called B7; HLA-B7
In short: as §3

[9] = target: T8, MHC class I allele B*0702 monomer; experiment: iTopia, multiparametric iScore; remark: listed apart in the source
Protocol: as §1
(§4) Finally, multiparametric analysis is performed on the results from these assays and an iScore is generated. The iScore represents a measure of the overall quality of peptide-MHC binding, enabling candidate peptides to be ranked in order of binding quality and allowing rational prioritisation of peptides for functional cellular follow-up studies.

[10] = target: T6, MHC class I allele A*0201 monomer; experiment: iTopia, multiparametric iScore; remark: listed apart in the source
Protocol: as §1, §4

[11] = target: T9, MHC class I molecule HLA-A*0201 (iTopia plate-bound monomer) (biotin (bound to streptavidin-coated plate)); experiment: iTopia off-rate assay, 37 C; fit R^2 0.93
T9 construct: also called A2
Protocol: as §1
A one-phase exponential decay curve, with a plateau given equal to 0, was generated using GraphPad Prism® software, which calculated the t1/2 and goodness-of-fit, as measured by r², for each peptide.

Binder RLRLARLAL [5T4 9 mer peptide 8 (RLRLARLAL)] has an EC50 [1] of 0.06 µM, an EC50 [2] of 0.4 µM and an EC50 [3] of 0.02 µM.

For SPTSSASSF [5T4 9 mer peptide 17 (SPTSSASSF)], the EC50 [3] was 2 µM.

FSSSAPFLA [5T4 9 mer peptide 21 (FSSSAPFLA)] gave an EC50 [4] of 20 µM.

In the case of APFLASAVS [5T4 9 mer peptide 23 (APFLASAVS)], the EC50 [1] is reported as 20 µM and the EC50 [3] is reported as 20 µM.

With VPTDLPAYV [5T4 9 mer peptide 43 (VPTDLPAYV)] the EC50 [4] was 20 µM and the EC50 [1] was 20 µM.

LPAYVRNLF [5T4 9 mer peptide 45 (LPAYVRNLF)] showed an EC50 [3] of 2 µM.

Work on GAFARRPPL [5T4 9 mer peptide 55 (GAFARRPPL)] yielded an EC50 [1] of 0.8 µM and an EC50 [3] of 10 µM.

In the case of PPLAELAAL [5T4 9 mer peptide 58 (PPLAELAAL)], the EC50 [1] is reported as 40 µM and the EC50 [3] is reported as 30 µM.

With LAELAALNL [5T4 9 mer peptide 59 (LAELAALNL)] the EC50 [1] was 2 µM and the EC50 [3] was 20 µM.

RLDEVRAGA [5T4 9 mer peptide 65 (RLDEVRAGA)] was tested, and the EC50 [1] was 20 µM, the EC50 [2] was 40 µM and the EC50 [3] was 20 µM.

Work on LPSLRQLDL [5T4 9 mer peptide 71 (LPSLRQLDL)] yielded an EC50 [1] of 5 µM and an EC50 [3] of 3 µM.

In the case of LPSLRHLDL [5T4 9 mer peptide 117 (LPSLRHLDL)], the EC50 [1] is reported as 20 µM and the EC50 [3] is reported as 5 µM.

VVAALLAGR [5T4 9 mer peptide 100 (VVAALLAGR)] showed an EC50 [2] of 10 µM.

For AALLAGRAL [5T4 9 mer peptide 101 (AALLAGRAL)], the EC50 [1] was 4 µM and the EC50 [3] was 7 µM.

In the case of LASNHFLYL [5T4 9 mer peptide 109 (LASNHFLYL)], the EC50 [4] is reported as 20 µM, the EC50 [1] is reported as 0.6 µM and the EC50 [2] is reported as 30 µM.

LPRDVLAQL [5T4 9 mer peptide 113 (LPRDVLAQL)] was tested, and the EC50 [3] was 10 µM.

NNPWVCDCH [5T4 9 mer peptide 147 (NNPWVCDCH)] was tested, and the EC50 [2] was 3 µM.

With LTCAYPEKM [5T4 9 mer peptide 161 (LTCAYPEKM)] the EC50 [4] was 20 µM and the EC50 [1] was 10 µM.

Binder QTSYVFLGI [5T4 9 mer peptide 177 (QTSYVFLGI)] has an EC50 [4] of 20 µM.

Binder HMEGYHYRY [5T4 9 mer peptide 198 (HMEGYHYRY)] has an EC50 [4] of 3 µM.

In the case of YVSFRNLTH [5T4 9-mer peptide 126], the iScore [5] is reported as 0, the iScore [6] is reported as 0 and the iScore [7] is reported as 0.086. The iScore [8] was 0.21 and the iScore [9] was 0.21.

Binder HMADMVTWL [5T4 9-mer peptide 151] has an iScore [5] of 0, an iScore [6] of 0.821 and an iScore [7] of 0. For the same binder, the iScore [8] was 0 and the iScore [10] was 0.821.

YPEKMRNRV [5T4 9-mer peptide 163] was tested, and the iScore [5] was 0, the iScore [6] was 0 and the iScore [7] was 0. It also gave an iScore [8] of 0.242 and an iScore [9] of 0.242.

Binder ILPPSLQTS [5T4 9-mer peptide 174] has an iScore [5] of 0, an iScore [6] of 0.523 and an iScore [7] of 0. It also gave an iScore [8] of 0 and an iScore [10] of 0.523.

Binder SLQTSYVFL [5T4 9-mer peptide 176] has an iScore [5] of 0, an iScore [6] of 0.561 and an iScore [7] of 0. It also gave an iScore [8] of 0 and an iScore [10] of 0.561.

With VFLGIVLAL (also called VFLGIVLAL) [5T4 9-mer peptide 179] the iScore [5] was 0, the iScore [6] was 0.606 and the iScore [7] was 0. For the same binder, the iScore [8] was 0 and the iScore [10] was 0.606.

With LALIGAIFL [5T4 9-mer peptide 182] the iScore [5] was 0, the iScore [6] was 0.425 and the iScore [7] was 0. The iScore [8] was 0.067 and the iScore [10] was 0.425.

LIGAIFLLV [5T4 9-mer peptide 183] showed an iScore [5] of 0, an iScore [7] of 0.07 and an iScore [8] of 0. For the same binder, the iScore [10] was 1.9.

Work on VLYLNRKGI [5T4 9-mer peptide 187] yielded an iScore [5] of 0, an iScore [6] of 0.095 and an iScore [7] of 0.017. For the same binder, the iScore [8] was 0.164 and the iScore [9] was 0.164.

For ILNHIVPPE [5T4 9-mer peptide 90], the iScore [10] was 0.426.

Binder RLDEVRAGA [5T4 9-mer peptide 65] has an iScore [10] of 0.422.

With SSAPFLASA [5T4 9-mer peptide 22] the iScore [10] was 0.389.

Work on GMVVAALLA [5T4 9-mer peptide 99] yielded an iScore [10] of 0.384.

Work on RLRLARLAL (also called RLRLARLAL) [5T4 9-mer peptide 8] yielded an iScore [9] of 1.

In the case of LPSLRQLDL [5T4 9-mer peptide 71], the iScore [9] is reported as 0.454.

With LPSLRHLDL [5T4 9-mer peptide 117] the iScore [9] was 0.445.

Work on LPAYVRNLF [5T4 9-mer peptide 45] yielded an iScore [9] of 0.389.

For GAFARRPPL [5T4 9-mer peptide 55], the iScore [9] was 0.359.

For SPTSSASSF [5T4 9-mer peptide 17], the iScore [9] was 0.335.

In the case of LPRDVLAQL [5T4 9-mer peptide 113], the iScore [9] is reported as 0.305.

With AALLAGRAL (also called AALLAGRAL) [5T4 9-mer peptide 101] the iScore [9] was 0.238.

Binder APFLASAVS [5T4 9-mer peptide 23] has an iScore [9] of 0.176.

Binder PPLAELAAL (also called PPLAELAAL) [5T4 9-mer peptide 58] has an iScore [9] of 0.145.

RGPAAGDGR (also called Peptide No 4) [5T4 9-mer peptide 4 RGPAAGDGR] was tested, and the t½ half life [11] was 1.2 h.

LALVLLGWV (also called Peptide No 11) [5T4 9-mer peptide 11 LALVLLGWV] showed a t½ half life [11] of 1.6 h.

PLADLSPFA (also called Peptide No 77) [5T4 9-mer peptide 77 PLADLSPFA] gave a t½ half life [11] of 4.8 h.

With GMVVAALLA (also called Peptide No 99) [5T4 9-mer peptide 99 GMVVAALLA] the t½ half life [11] was 1.8 h.

GLRRLELAS [5T4 9-mer peptide 106 GLRRLELAS] showed a t½ half life [11] of 0.4 h.

With SLRHLDLSN [5T4 9-mer peptide 118 SLRHLDLSN] the t½ half life [11] was 0.4 h.

VFLDNNPWV [5T4 9-mer peptide 145 VFLDNNPWV] gave a t½ half life [11] of 1.2 h.

With ILPPSLQTS (also called Peptide No 174) [5T4 9-mer peptide 174 ILPPSLQTS] the t½ half life [11] was 5 h.
